Target: MRG2 chromodomain (residues 41-123) (Arabidopsis thaliana) (UniProt Q4V3E2)
Test: ITC; 25 C, MicroCal iTC200; 50 mM Tris pH 8.0, 100 mM NaCl; 0.2-0.4 mM protein in the cell, 2-4 mM peptide injected in 2 ul aliquots (20 injections); one-site model

Chain of MRG2 chromodomain (residues 41-123) (Arabidopsis thaliana) (Q4V3E2 41-123): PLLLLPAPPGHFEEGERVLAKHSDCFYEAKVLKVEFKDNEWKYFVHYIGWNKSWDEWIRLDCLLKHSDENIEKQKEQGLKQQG

Kd [µM] | Substance
800 | H3K4me3 peptide (residues 1-9)
690 | H3K36me3 peptide (residues 31-41)

— publication PMC4161306, “Regulation of Arabidopsis Flowering by the Histone Mark Readers MRG1/2 via Interaction with CONSTANS to Modulate FT Expression” (PLoS Genetics, 2014)
